# Results from article PMC3794620, “The Pyridoxal 5′-Phosphate (PLP)-Dependent Enzyme Serine Palmitoyltransferase (SPT): Effects of the Small Subunits and Insights from Bacterial Mimics of Human hLCB2a HSAN1 Mutations” (BioMed Research International, 2013).
# T1: Sp SPT (Sphingomonas paucimobilis, UniProt Q93UV0, G385F)
# T1 construct: full-length soluble enzyme, pET28a, C-terminal His6 tag, E. coli BL21(DE3), Ni-NTA and gel filtration, homodimer ~90 kDa, PLP holoform
# T1 sequence (Q93UV0 1-420 G385F): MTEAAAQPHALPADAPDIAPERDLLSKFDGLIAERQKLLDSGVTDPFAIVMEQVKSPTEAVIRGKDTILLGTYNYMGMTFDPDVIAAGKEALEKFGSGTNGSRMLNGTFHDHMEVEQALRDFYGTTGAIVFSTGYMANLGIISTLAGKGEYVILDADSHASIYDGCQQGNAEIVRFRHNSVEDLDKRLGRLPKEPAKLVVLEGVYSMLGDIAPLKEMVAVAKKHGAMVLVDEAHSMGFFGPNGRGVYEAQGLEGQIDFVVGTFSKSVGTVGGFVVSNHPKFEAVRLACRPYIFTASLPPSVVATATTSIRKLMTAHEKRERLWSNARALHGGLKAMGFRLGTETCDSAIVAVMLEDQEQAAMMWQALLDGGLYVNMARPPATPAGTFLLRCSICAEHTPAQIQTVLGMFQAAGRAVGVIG
# T2: Sp SPT (Sphingomonas paucimobilis, UniProt Q93UV0)
# T2 construct: full-length soluble enzyme, pET28a, C-terminal His6 tag, E. coli BL21(DE3), Ni-NTA and gel filtration, homodimer ~90 kDa, PLP holoform
# T2 sequence (Q93UV0 1-420): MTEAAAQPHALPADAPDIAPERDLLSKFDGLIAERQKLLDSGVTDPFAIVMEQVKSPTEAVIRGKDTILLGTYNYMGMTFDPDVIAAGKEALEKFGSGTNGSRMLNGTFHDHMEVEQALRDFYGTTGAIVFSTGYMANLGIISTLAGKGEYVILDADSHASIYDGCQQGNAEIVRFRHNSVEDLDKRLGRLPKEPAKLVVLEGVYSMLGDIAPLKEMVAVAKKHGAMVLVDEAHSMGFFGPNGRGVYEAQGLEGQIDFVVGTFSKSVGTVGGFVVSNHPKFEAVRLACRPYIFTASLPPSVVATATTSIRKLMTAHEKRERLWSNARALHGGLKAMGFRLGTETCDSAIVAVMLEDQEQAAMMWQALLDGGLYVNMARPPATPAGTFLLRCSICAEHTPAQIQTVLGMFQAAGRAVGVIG
# T3: Sp SPT (Sphingomonas paucimobilis, UniProt Q93UV0, V246M)
# T3 construct: full-length soluble enzyme, pET28a, C-terminal His6 tag, E. coli BL21(DE3), Ni-NTA and gel filtration, homodimer ~90 kDa, PLP holoform
# T3 sequence (Q93UV0 1-420 V246M): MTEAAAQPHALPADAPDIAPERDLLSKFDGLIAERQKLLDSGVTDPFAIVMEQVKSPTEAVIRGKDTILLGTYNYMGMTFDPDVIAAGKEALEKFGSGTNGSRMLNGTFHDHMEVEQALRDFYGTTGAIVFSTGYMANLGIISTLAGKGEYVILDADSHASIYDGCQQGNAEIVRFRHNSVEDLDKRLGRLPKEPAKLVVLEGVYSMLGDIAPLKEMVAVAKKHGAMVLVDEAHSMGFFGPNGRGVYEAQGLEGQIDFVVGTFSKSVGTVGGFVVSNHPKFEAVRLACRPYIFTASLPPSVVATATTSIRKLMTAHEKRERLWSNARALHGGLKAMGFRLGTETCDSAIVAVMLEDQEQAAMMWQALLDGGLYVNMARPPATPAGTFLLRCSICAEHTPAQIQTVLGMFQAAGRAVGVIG
# B1: Sp SPT (Sphingomonas paucimobilis) (protein)
# chain: MTEAAAQPHALPADAPDIAPERDLLSKFDGLIAERQKLLDSGVTDPFAIVMEQVKSPTEAVIRGKDTILLGTYNYMGMTFDPDVIAAGKEALEKFGSGTNGSRMLNGTFHDHMEVEQALRDFYGTTGAIVFSTGYMANLGIISTLAGKGEYVILDADSHASIYDGCQQGNAEIVRFRHNSVEDLDKRLGRLPKEPAKLVVLEGVYSMLGDIAPLKEMVAVAKKHGAMVLVDEAHSMGFFGPNGRGVYEAQGLEGQIDFVVGTFSKSVGTVGGFVVSNHPKFEAVRLACRPYIFTASLPPSVVATATTSIRKLMTAHEKRERLWSNARALHGGLKAMGFRLGTETCDSAIVAVMLEDQEQAAMMWQALLDGGLYVNMARPPATPAGTFLLRCSICAEHTPAQIQTVLGMFQAAGRAVGVIG
# notes: full-length soluble enzyme, pET28a, C-terminal His6 tag, E. coli BL21(DE3), Ni-NTA and gel filtration, homodimer ~90 kDa, PLP holoform
# B2: Sphingomonas paucimobilis serine palmitoyltransferase G385F (mimic of hLCB2a I504F) (enzyme)
# chain: MTEAAAQPHALPADAPDIAPERDLLSKFDGLIAERQKLLDSGVTDPFAIVMEQVKSPTEAVIRGKDTILLGTYNYMGMTFDPDVIAAGKEALEKFGSGTNGSRMLNGTFHDHMEVEQALRDFYGTTGAIVFSTGYMANLGIISTLAGKGEYVILDADSHASIYDGCQQGNAEIVRFRHNSVEDLDKRLGRLPKEPAKLVVLEGVYSMLGDIAPLKEMVAVAKKHGAMVLVDEAHSMGFFGPNGRGVYEAQGLEGQIDFVVGTFSKSVGTVGGFVVSNHPKFEAVRLACRPYIFTASLPPSVVATATTSIRKLMTAHEKRERLWSNARALHGGLKAMGFRLGTETCDSAIVAVMLEDQEQAAMMWQALLDGGLYVNMARPPATPAFTFLLRCSICAEHTPAQIQTVLGMFQAAGRAVGVIG
# modifications: PLP cofactor covalently bound as an imine to Lys265
# notes: serine palmitoyltransferase of Sphingomonas paucimobilis with G385F, made on pET 28a/Sp SPT; The PDB entries are of the wild-type parent; also called Sp SPT G385F; SPT G385F
# B3: Sphingomonas paucimobilis serine palmitoyltransferase V246M (mimic of hLCB2a V359M) (enzyme)
# chain: MTEAAAQPHALPADAPDIAPERDLLSKFDGLIAERQKLLDSGVTDPFAIVMEQVKSPTEAVIRGKDTILLGTYNYMGMTFDPDVIAAGKEALEKFGSGTNGSRMLNGTFHDHMEVEQALRDFYGTTGAIVFSTGYMANLGIISTLAGKGEYVILDADSHASIYDGCQQGNAEIVRFRHNSVEDLDKRLGRLPKEPAKLVVLEGVYSMLGDIAPLKEMVAVAKKHGAMVLVDEAHSMGFFGPNGRGMYEAQGLEGQIDFVVGTFSKSVGTVGGFVVSNHPKFEAVRLACRPYIFTASLPPSVVATATTSIRKLMTAHEKRERLWSNARALHGGLKAMGFRLGTETCDSAIVAVMLEDQEQAAMMWQALLDGGLYVNMARPPATPAGTFLLRCSICAEHTPAQIQTVLGMFQAAGRAVGVIG
# modifications: PLP cofactor covalently bound as an imine to Lys265
# notes: serine palmitoyltransferase of Sphingomonas paucimobilis with V246M, made on pET 28a/Sp SPT; The PDB entries are of the wild-type parent; also called Sp SPT V246M; SPT V246M
# Legend:
# [1] = target: T1, Sp SPT; assay: UV-visible titration, absorbance change at […] nm (external aldimine); assay type: binding; conditions: read-out: Kd ^L-ser
# [2] = target: T2, Sp SPT; assay: as above; assay type: binding; conditions: read-out: Kd ^L-ser
# [3] = target: T3, Sp SPT; assay: as above; assay type: binding; conditions: read-out: Kd ^L-ser
# [4] = target: T2, Sp SPT; assay: UV-visible spectroscopy, quinonoid peak at ~[…] nm; assay type: binding; conditions: 1.5 mM analogue, 50 mM L-serine, 40 μM enzyme, 25 °C, 15 min
# [5] = target: T2, Sp SPT; assay: UV-visible spectroscopy of internal aldimine; assay type: binding; conditions: covalent (imine to Lys265), 40 μM enzyme, 20 mM potassium phosphate pH 7.5, 150 mM NaCl, 25 °C
# [6] = system: T4, CCCCCCCCCCCCCCCC(=O)SCCNC(=O)CCNC(=O)[C@H](O)C(C)(C)COP(=O)(O)OP(=O)(O)OC[C@H]1O[C@@H](n2cnc3c(N)ncnc32)[C@H](O)[C@@H]1OP(=O)(O)O; assay: DTNB assay of CoASH release, Michaelis-Menten fit; assay type: biochemical, Sphingomonas paucimobilis; conditions: co-substrate L-serine
# T4 construct: full-length soluble enzyme, pET28a, C-terminal His6 tag, E. coli BL21(DE3), Ni-NTA and gel filtration, homodimer ~90 kDa, PLP holoform
# From the text: (§1) DTNB assay of CoASH release, Michaelis-Menten fit on Sp SPT
# [7] = system: T5, N[C@@H](CO)C(=O)O; assay: DTNB assay of CoASH release, Michaelis-Menten fit; assay type: biochemical, Sphingomonas paucimobilis; conditions: co-substrate palmitoyl-CoA
# T5 construct: full-length soluble enzyme, pET28a, C-terminal His6 tag, E. coli BL21(DE3), Ni-NTA and gel filtration, homodimer ~90 kDa, PLP holoform
# From the text: as §1
# [8] = substrate: CCCCCCCCCCCCCCCC(=O)SCCNC(=O)CCNC(=O)[C@H](O)C(C)(C)COP(=O)(O)OP(=O)(O)OC[C@H]1O[C@@H](n2cnc3c(N)ncnc32)[C@H](O)[C@@H]1OP(=O)(O)O; assay: DTNB assay of CoASH release, Michaelis-Menten fit; assay type: biochemical, Sphingomonas paucimobilis; conditions: co-substrate L-serine
# From the text: as §1
# [9] = substrate: N[C@@H](CO)C(=O)O; assay: DTNB assay of CoASH release, Michaelis-Menten fit; assay type: biochemical, Sphingomonas paucimobilis; conditions: co-substrate palmitoyl-CoA
# From the text: as §1
# [10] = target: the molecule itself; assay: SEC; size exclusion chromatography of the purified enzymes; data not shown
molecule,measurement,setting,value
N[C@@H](CO)C(=O)O [L-serine],Kd,[1],4700 ± 100 µM
same,Kd,[2],1100 ± 100 µM
same,Kd,[3],1500 ± 100 µM
CCCCCCCCCCCCCCCC(=O)CSCCNC(=O)CCNC(=O)[C@H](O)C(C)(C)COP(=O)(O)OP(=O)(O)OC[C@H]1O[C@@H](n2cnc3c(N)ncnc32)[C@H](O)[C@@H]1OP(=O)(O)O [S-(2-oxoheptadecyl)-CoA],"UV-visible spectroscopy, quinonoid peak at ~495 nm",[4],Addition of the analogue to the PLP-L-serine external aldimine form of the wild-type SPT
Cc1ncc(COP(=O)(O)O)c(C=O)c1O [pyridoxal 5′-phosphate],UV-visible spectroscopy of internal aldimine,[5],"characteristic of the holo-, PLP-bound internal aldimine form of the enzyme"
Sp SPT (Sphingomonas paucimobilis; G385F),Km,[6],52.2 ± 8.0 µM
same,kcat,[6],41 ± 2.0 × 10^-2 s^-1
same,kcat/Km,[6],7850 M⁻¹ s⁻¹
same,Km,[7],3000 ± 500 µM
same,kcat,[7],41 ± 2.0 × 10^-2 s^-1
same,kcat/Km,[7],136 M⁻¹ s⁻¹
Sp SPT (Sphingomonas paucimobilis; V246M),Km,[6],128.0 ± 10.0 µM
same,kcat,[6],44 ± 1.2 × 10^-2 s^-1
same,kcat/Km,[6],3440 M⁻¹ s⁻¹
same,Km,[7],2500 ± 200 µM
same,kcat,[7],44 ± 1.2 × 10^-2 s^-1
same,kcat/Km,[7],176 M⁻¹ s⁻¹
B1,Km,[8],35.6 ± 2.0 µM
same,kcat,[8],114 ± 2.0 × 10^-2 s^-1
same,kcat/Km,[8],32000 M⁻¹ s⁻¹
same,Km,[9],1600 ± 90 µM
same,kcat,[9],114 ± 2.0 × 10^-2 s^-1
same,kcat/Km,[9],712 M⁻¹ s⁻¹
B2,stoichiometry N,[10],2
B3,stoichiometry N,[10],2
